# Molecular target: PDGF-BB (UniProt P01127 P01127:82-190)
# Assay: SPR; aptamer on DNA honeycomb on gold; phosphate buffer 137 mM NaCl, 2.7 mM KCl, 1 mM MgCl2, pH 7.4
# Conditions: chain copies: 2 (homodimer, inferred)
# Experimental: The sensing surface was then exposed to the Platelet-derived growth factor aptamer which had been modified, as in Table III (SEQ ID NO:16), to include a 25 bp poly A tail at a concentration of 50 nM in 10 mM Tris pH 7.4 1 M NaCl 1 mM EDTA and incubated for an hour.
# The sensing surface was washed with 10.1 mM Na₂HPO₄, 1.8 mM KH₂PO₄, 137 mM NaCl and 2.7 mM KCl, 1 mM MgCl2, pH 7.4. Detection of PDGF was performed in the same buffer where the surface was exposed to increasing concentrations of the ligands and response was recorded.
# Chain of PDGF-BB (P01127 82-190, one chain of several): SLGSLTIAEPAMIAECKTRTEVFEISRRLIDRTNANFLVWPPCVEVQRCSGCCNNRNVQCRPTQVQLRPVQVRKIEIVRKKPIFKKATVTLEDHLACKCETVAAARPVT
binder,measurement,value
"PDGF-BB aptamer with 25-nt poly A tail (SEQ ID NO: 16), on honeycomb DNA scaffold (ssDNA) DNA: CACAGGCTACGGCACGTAGAGCATCACCATGATCCTGTGAAAAAAAAAAAAAAAAAAAAAAAAA",Kd,0.028 µM

# From patent US20210395743, “SELF-ASSEMBLING NUCLEIC ACID SURFACES FOR BIOSENSOR APPLICATIONS” (INSTITUT NATIONAL DE LA RECHERCHE SCIENTIFIQUE, published 2021)
